Reference: US7314747B1, “SMRT co-repressors, transcriptional co-repressors that interact with nuclear hormone receptors” (The Salk Institute for Biological Studies, priority 1995, dated 2008)

Tests used:
E52-RAR interaction = target: T1, E52-RAR interaction (Homo sapiens, UniProt P10276); assay: Yeast two-hybrid assay, E52-RAR interaction; format: cell-based; details: 3 μM ligand
T1 construct: hRAR (amino acids 186-462); expressed in transfected cells; host or cells: Y190 yeast cells
T1 sequence (P10276 186-462): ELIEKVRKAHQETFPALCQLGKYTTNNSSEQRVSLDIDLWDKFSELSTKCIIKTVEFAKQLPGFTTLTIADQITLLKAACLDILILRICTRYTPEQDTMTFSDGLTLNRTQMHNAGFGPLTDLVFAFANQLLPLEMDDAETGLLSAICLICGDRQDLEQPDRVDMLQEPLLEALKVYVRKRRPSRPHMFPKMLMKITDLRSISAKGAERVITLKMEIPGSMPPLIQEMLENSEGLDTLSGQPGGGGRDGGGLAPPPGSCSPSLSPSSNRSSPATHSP
Procedure: Transformants were selected onto DO-Leu-Trp-His plates containing 40 mM 3-aminotriazole (Sigma) for 3-4 days. Surviving yeast colonies were picked as primary positives and restreaked on selection plates to isolate single clones. Activation domain plasmids were rescued from the selected positive transformants for further analysis. Each clone was evaluated by testing its potential interaction with several other nuclear receptors using the yeast two-hybrid assays. […] Quantitative liquid assay of β-galactosidase was performed on positive clones 16 hr after treating the yeast cells with no ligand, or with 3 μM ligand.

[1] = target: GST-SMRT (GST fusion of the C-SMRT encoded by the yeast two hybrid clone) (human) (UniProt Q9Y618); assay: far-western: 35S-labelled receptor on immobilized GST-SMRT, phosphoimager
[2] = target: T2, GST-SMRT (GST fusion of the C-SMRT encoded by the yeast two hybrid clone) (human, UniProt Q9Y618 2000-2514); assay: far-western: 35S-labelled receptor on GST-SMRT, phosphoimager
T2 construct: also called immobilized GST-SMRT; not shown: glutathione S-transferase (GST) tag

EcR A483T = target: T3, EcR A483T (Drosophila, UniProt P34021 1-878); assay: mammalian two-hybrid in CV-1 cells (with VP16-USP)
T3 construct: CMV vector, cotransfected with VP16-USP; also called repression-defective EcR allele
T3 sequence (looked up): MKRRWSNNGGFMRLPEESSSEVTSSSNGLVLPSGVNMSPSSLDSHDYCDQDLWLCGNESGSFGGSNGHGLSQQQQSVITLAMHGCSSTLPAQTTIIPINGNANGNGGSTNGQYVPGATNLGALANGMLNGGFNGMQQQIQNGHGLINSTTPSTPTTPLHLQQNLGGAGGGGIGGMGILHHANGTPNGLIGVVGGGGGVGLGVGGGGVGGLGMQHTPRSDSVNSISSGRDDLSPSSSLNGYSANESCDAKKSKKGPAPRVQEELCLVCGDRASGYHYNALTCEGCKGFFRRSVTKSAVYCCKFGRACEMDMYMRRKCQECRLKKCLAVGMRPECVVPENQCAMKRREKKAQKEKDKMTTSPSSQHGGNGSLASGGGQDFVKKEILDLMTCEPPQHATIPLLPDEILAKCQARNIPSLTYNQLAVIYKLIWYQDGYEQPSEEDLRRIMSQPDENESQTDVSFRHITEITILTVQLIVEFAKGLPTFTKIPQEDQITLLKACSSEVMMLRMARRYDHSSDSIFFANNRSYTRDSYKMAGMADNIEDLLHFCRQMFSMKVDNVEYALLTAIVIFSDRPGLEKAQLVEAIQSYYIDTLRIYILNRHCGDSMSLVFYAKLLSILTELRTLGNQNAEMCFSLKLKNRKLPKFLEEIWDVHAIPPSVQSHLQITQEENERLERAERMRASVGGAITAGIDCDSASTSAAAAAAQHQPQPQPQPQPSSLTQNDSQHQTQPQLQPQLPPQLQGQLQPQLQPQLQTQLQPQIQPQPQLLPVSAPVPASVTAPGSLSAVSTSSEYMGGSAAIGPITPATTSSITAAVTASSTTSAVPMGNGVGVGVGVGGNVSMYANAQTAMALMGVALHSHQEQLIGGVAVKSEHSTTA

[3] = tested on: GAL4-TK-luciferase reporter in CV-1 cells; assay: GAL4-SMRT amino terminus fusions cotransfected with GAL4-TK-luciferase reporter in CV-1 cells; format: cell-based, Monkey; details: luciferase normalized to β-galactosidase
Procedure: Experiments were performed using the plasmids pCMX-GAL4 DBD and pMH100-TK-luc (Nagy et al., (1997), supra). Standard PCR amplifications were used to generate GAL4 fusion constructs. All constructs were verified by double-stranded sequencing to confirm identity and reading frame.
Monkey CV-1 cells were grown in DMEM supplemented with 10% resin-charcoal stripped fetal bovine serum (FBS), 50 units/ml of penicillin G, and 50 μg/ml of streptomycin sulfate at 37° C. in 7% CO2. V-1 cells (60-70% confluence, 48-well plate) were cotransfected with 16 ng of pCMX-GAL4, 100 ng of pMH100-TK-luc, and 100 ng of pCMX-β galactosidase in 200 μl of DMEM containing 10% super-stripped fetal calf serum (FCS) by the N-(1-(2,3-dioleoyloxy)propyl)-N,N,N-trimethylammonium methylsulfate (DOTAP)-mediated procedure (Nagy et al., (1997), supra). The amount of DNA in each transfection was kept constant by addition of pCMX. After 24 hr, the medium was replaced; cells were harvested and assayed for luciferase activity 36 to 48 hr after transfection. […]
Based on the high degree of identity between regions of the SMRT amino terminus and the corresponding N-CoR region, the ability of regions in the SMRT amino terminus to act in transcriptional repression was examined. […] Repression was determined relative to the basal activity of the reporter in the presence of the GAL-DBD alone.

Molecule: CC1=C(/C=C/C(C)=C/C=C/C(C)=C/C(=O)O)C(C)(C)CCC1 [atRA, all-trans retinoic acid]
- dissociation of the interaction between E52 and RAR by ligand (E52-RAR interaction): can be dissociated

Molecule: RAR403 (carboxy-terminal deletion mutant of RAR) (from UniProt P10276 1-403) (receptor)
- fold interaction relative to wild type RAR (phosphoimager) [1]: 4 fold

B1: v-erbA (naturally occurring oncogene, oncogenic TR variant) (receptor)
chain: REEQVTSEQAKFWLGLGGGRVSPPGPECIEKPATERRIDKGEEMGETTVQRDAKMAPEKMATPKTVGTSCYQCGTATGCNCVTASAPPPPYVGSGLYPSLAGAGEQGQGGDTPRGAEQPRAEPGHAGQAPGPALTDWARIREELASTGPPVVAMPVVIKTEGPAWTPLEPEDTRWLDGKHKRKSSQCLVKSSMSGYIPSCLDKDEQCVVCGDKATGYHYRCITCEGCKSFFRRTIQKNLHPTYSCTYDGCCVIDKITRNQCQLCRFKKCISVGMAMDLVLDDSKRVAKRKLIEENRERRRKEEMIKSLQHRPSPSAEEWELIHVVTEAHRSTNAQGSHWKQRRKFLLEDIGQSPMASMLDGDKVDLEAFSEFTKIITPAITRVVDFAKNLPMFSELPCEDQIILLKGCCMEIMSLRAAVRYDPESETLTLSGEMAVKREQLKNGGLGVVSDAIFDLGKSLSAFNLDDTEVALLQAVLLMSSDRTGLICVDKIEKCQESYLLAFEHYINYRKHNIPHFWSKLLMKVADLRMIGAYHASRFLHMKVECPTELSPQEV
- fold interaction relative to hTRβ (phosphoimager) [2]: 18 fold

B2: TR160 (rTRα Pro 160->Arg mutant, full length) (receptor, rat (printed as rTRα), UniProt P63059 1-492, looked up)
chain: MEQKPSKVECGSDPEENSARSPDGKRKRKNGQCPLKSSMSGYIPSYLDKDEQCVVCGDKATGYHYRCITCEGCKGFFRRTIQKNLHPTYSCKYDSCCVIDKITRNQCQLCRFKKCIAVGMAMDLVLDDSKRVAKRKLIEQNRERRRKEEMIRSLQQRPERTPEEWDLIHVATEAHRSTNAQGSHWKQRRKFLPDDIGQSPIVSMPDGDKVDLEAFSEFTKIITPAITRVVDFAKKLPMFSELPCEDQIILLKGCCMEIMSLRAAVRYDPESDTLTLSGEMAVKREQLKNGGLGVVSDAIFELGKSLSAFNLDDTEVALLQAVLLMSTDRSGLLCVDKIEKSQEAYLLAFEHYVNHRKHNIPHFWPKLLMKVTDLRMIGACHASRFLHMKVECPTELFPPLFLEVFEDQEV
notes: mature; 35S-labelled probe; also called rTRα R160 mutant; TR160 mutant
- fold lower signal relative to rTRα (phosphoimager) [2]: 10 fold lower

B3: Gal4-c-SMRT (aa 981 to C terminus) (other)
chain: MKLLSSIEQACDICRLKKLKCSKEKPKCAKCLKNNWECRYSPKTKRSPLTRAHLTEVESRLERLEQLFLLIFPREDLDMILKMDSLQDIKALLTGLFVQDNVNKDAVTDRLASVETDMPLTLRQHRISATSSSEESSNKGQRQLTVSAPHHASPDPPAPPASASDPHREKTQSKPFSIQELELRSLGYHGSSYSPEGVEPVSPVSSPSLTHDKGLPKHLEELDKSHLEGELRPKQPGPVKLGGEAAHLPHLRPLPESQPSSSPLLQTAPGVKGHQRVVTLAQHISEVITQDYTRHHPQQLSAPLPAPLYSFPGASCPVLDLRRPPSDLYLPPPDHGAPARGSPHSEGGKRSPEPNKTSVLGGGEDGIEPVSPPEGMTEPGHSRSAVYPLLYRDGEQTEPSRMGSKSPGNTSQPPAFFSKLTESNSAMVKSKKQEINKKLNTHNRNEPEYNISQPGTEIFNMPAITGTGLMTYRSQAVQEHASTNMGLEAIIRKALMGGGKAKVSGRPSSRKAKSPAPGLASGDRPPSVSSVHSEGDCNRRTPLTNRVWEDRPSSAGSTPFPYNPLIMRLQAGVMASPPPPGLPAGSGPLAGPHHAWDEEPKPLLCSQYETLSDSE
notes: also called vertebrate corepressor
- binding result (EcR A483T): no binding

B4: m-SMRTβ (amino acids 1 to 813): construct containing the entire amino terminus of m-SMRTβ (protein, UniProt Q9WU42 1-813, looked up, fragment)
chain: MSGSTQPVAQTWRAAEPRYPPHGISYPVQIARSHTDVGLLEYQHHPRDYTSHLSPGSIIQPQRRRPSLLSEFQPGSERSQELHLRPESRTFLPELGKPDIEFTESKRPRLELLPDTLLRPSPLLATGQPSGSEDLTKDRSLAGKLEPVSPPSPPHADPELELAPSRLSKEELIQNMDRVDREITMVEQQISKLKKKQQQLEEEAAKPPEPEKPVSPPPIESKHRSLVQIIYDENRKKAEAAHRILEGLGPQVELPLYNQPSDTRQYHENIKINQAMRKKLILYFKRRNHARKQWEQRFCQRYDQLMEAWEKKVERIENNPRRRAKESKVREYYEKQFPEIRKQRELQERMQSRVGQRGSGLSMSAARSEHEVSEIIDGLSEQENLEKQMRQLAVIPPMLYDADQQRIKFINMNGLMDDPMKVYKDRQVTNMWSEQERDTFREKFMQHPKNFGLIASFLERKTVAECVLYYYLTKKNENYKSLVRRSYRRRGKSQQQQQQQQQQQQQQMARSSQEEKEEKEKEKEADKEEEKQDAENEKEELSKEKTDDTSGEDNDEKEAVASKGRKTANSQGRRKGRITRSMANEANHEETATPQQSSELASMEMNESSRWTEEEMETAKKGLLEHGRNWSAIARMVGSKTVSQCKNFYFNYKKRQNLDEILQQHKLKMEKERNARRKKKKTPAAASEETAFPPAAEDEEMEASGASANEEELAEEAEASQASGNEVPRVGECSGPAAVNNSSDTESVPSPRSEATKDTGPKPTGTEALPAATQPPVPPPEEPAVAPAEPSPVPDASGPPSPEPSPSPAAPPA
modifications: SMRTbeta
- repression relative to basal reporter activity with GAL-DBD alone [3]: about 2.6 fold
